Legend:
apoE−/− mice = test: In vivo LPS challenge, serum IL-1β and TNF-α by ELISA; conditions: LPS 50 μg/kg i.v., FIG. 37
Protocol: Female apoE−/− mice were fed a Western-type diet containing 0.25% cholesterol and 15% cacao butter (SDS, Sussex, UK) starting 1 week prior to treatment and throughout the experiment. Diet and water were provided ad libitum. After 1 week of diet feeding, mice were injected intraperitoneally with PBS or InflaMab (100 μg or 200 μg) administrated on day 10 and day 14. After 2 weeks of diet and a 1-week treatment mice were challenged intravenously with LPS (50 μg/kg, Salmonella minnesota R595, List Biological Laboratories Inc.) and blood was collected after 0.5, 1, 2 and 4 hours. After 4 hours mice were sacrificed and serum levels of IL-1β and TNF-α were measured by ELISA.
IL-1beta, but not TNFalpha, is inhibited in vivo via LPS challenge—see FIG. 37. Female apoE−/− mice, after 1 week on WTD, were injected intraperitoneally with PBS or InflaMab (100 μg or 200 μg) administrated on day 10 and day 14. After 2 weeks of diet and a 1-week treatment mice were challenged intravenously with LPS (50 μg/kg) and (a) IL-1β and (b) TNF-α were measured by ELISA.

[1] = test system: Bone Marrow Derived Macrophages (BMDMs); test: Inflammasome activation assay in bone marrow derived macrophages (cytokine ELISA); assay type: cell-based, C57BL/6 mice; conditions: murine BMDMs, FIG. 36
Protocol: Bone marrow cells were isolated from the tibias and femurs of C57BL/6 mice. To obtain bone marrow-derived dendritic cells (BMDCs), cells were cultured for 7 days at 37° C. and 5% CO2 in Iscove's modified Dulbecco's medium (IMDM) supplemented with 8% fetal calf serum (FCS), 1% penicillin/streptomycin (GE Healthcare Life Sciences, Marlborough, MA, USA), 1% glutamax (Thermo Fisher Scientific, Waltham, MA, USA) and 20 μM β-mercaptoethanol (Sigma-Aldrich, St. Louis, MO, USA) in the presence of 20 ng/mL gm-CSF (Preprotech, Rocky Hill, NJ, USA). To obtain bone marrow-derived macrophages (BMDMs), cells were cultured for 7 days in Roswell Park Memorial Institute medium (RPMI) supplemented with 10% FCS, 100 U/mL penicillin/streptomycin, 0.1 mM nonessential amino acids, 1% pyruvate and 2 mM L-glutamine (Thermo Fisher Scientific) in the presence of 20 ng/mL m-CSF (eBioscience)
For in vitro stimulation, 0.1×10^6 cells per well were added to 96-well flat-bottom plates (Greiner Bio-One, Kremsmunster, Austria). Cells were first primed with LPS (50 ng/mL) for 2 hours, after which cholesterol crystals (2 mg/mL) were added in the presence or absence of MCC950 (1 μM, Adipogen, San Diego, US) for an additional 4 hours. […]
InflaMab inhibits IL-1beta secretion in BMDMs—see FIG. 36. […] IL-1β release was measured in the supernatant by ELISA.

B1: InflaMab: 210 kDa bispecific mouse antibody to IL-1R1 and NLRP3; light chain SEQ ID NO: 57, heavy chain with scFv SEQ ID NO: 59 (protein)
light: MVSSAQFLGLLLLCFQGTRCDIVMTQSPATLSVTPGDRVSLSCRASQSISDYLSWYQQRSHESPRLIIKYASQSISGIPSRFSGSGSGSDFTLSINSVEPEDVGVYYCQHGHSFPLTFGSGTKLELKRADAAPTVSIFPPSSEQLTSGGASVVCFLNNFYPKDINVKWKIDGSERQNGVLNSWTDQDSKDSTYSMSSTLTLTKDEYERHNSYTCEATHKTSTSPIVKSFNRNEC
heavy: MGWTLVFLFLLSVTAGVHSQIQLVQSGPELRKPGETVRISCKASGYPFTTAGLQWVQKMSGKGLKWIGWMNTQSEVPKYAEEFKGRIAFSLETAASTAYLQINNLKTEDTATYFCAKSVYFNWRYFDVWGAGTTVTVSSAKTTAPSVYPLAPVCGDTTGSSVTLGCLVKGYFPEPVTLTWNSGSLSSGVHTFPAVLQSDLYTLSSSVTVTSSTWPSQSITCNVAHPASSTKVDKKIEPRGPTIKPCPPCKCPAPNLLGGPSVFIFPPKIKDVLMISLSPIVTCVVVDVSEDDPDVQISWFVNNVEVHTAQTQTHREDYNSTLRVVSALPIQHQDWMSGKEFKCKVNNKDLPAPIERTISKPKGSVRAPQVYVLPPPEEEMTKKQVTLTCMVTDFMPEDIYVEWTNNGKTELNYKNTEPVLDSDGSYFMYSKLRVEKKNWVERNSYSCSVVHEGLHNHHTTKSFSRTPGKGSAGGSGGDSEVQLVESGGGLVKPGGSLKLSCAASGFTFSDYYMYWVRQTPEKRLEWVATISDGGTYTYYPDSVKGRFTISRDNAKNNLYLQMNSLKSEDTAMYYCARGWVSTMVKLLSSFPYWGQGTLVTVSAGGGGSGGGGSGGGGSQAVVTQESALTTSPGETVTLTCRSSTGAVTTSNYANWVQEKPDHLFTGLIGGTNNRAPGVPARFSGSLIGDKAALTITGAQTEDEAIYFCALWYSNYWVFGGGTKLTVLGQPK
apoE−/− mice; female apoE−/− mice on Western-type diet, 100 μg or 200 μg i.p. day 10 and 14
  IL-1beta secretion in vivo: specifically inhibit
apoE−/− mice; female apoE−/− mice, 100 μg or 200 μg i.p., specificity
  secretion of TNFalpha in vivo: no effect
[1]; same cells, specificity
  secretion of TNFalpha: no effect
[1]; LPS 50 ng/ml, Inflamab 30 min, Alum 50 μg/ml 1 h, ELISA
  IL-1beta secretion: dose-dependently inhibit
